Measurements: patent US9371393B2, “Class I anti-CEA antibodies and uses thereof” (Immunomedics, Inc., priority 2009, dated 2016)

Experiments:
[1] = target: T1, ^125I-CEA (Homo sapiens, UniProt P06731); experiment: ROCHE 125I-CEA radioimmunoassay (RIA); assay type: binding; conditions: 0.01 and 0.10 M NH4 acetate buffer
T1 construct: purchased ROCHE
T1 sequence (P06731 35-676): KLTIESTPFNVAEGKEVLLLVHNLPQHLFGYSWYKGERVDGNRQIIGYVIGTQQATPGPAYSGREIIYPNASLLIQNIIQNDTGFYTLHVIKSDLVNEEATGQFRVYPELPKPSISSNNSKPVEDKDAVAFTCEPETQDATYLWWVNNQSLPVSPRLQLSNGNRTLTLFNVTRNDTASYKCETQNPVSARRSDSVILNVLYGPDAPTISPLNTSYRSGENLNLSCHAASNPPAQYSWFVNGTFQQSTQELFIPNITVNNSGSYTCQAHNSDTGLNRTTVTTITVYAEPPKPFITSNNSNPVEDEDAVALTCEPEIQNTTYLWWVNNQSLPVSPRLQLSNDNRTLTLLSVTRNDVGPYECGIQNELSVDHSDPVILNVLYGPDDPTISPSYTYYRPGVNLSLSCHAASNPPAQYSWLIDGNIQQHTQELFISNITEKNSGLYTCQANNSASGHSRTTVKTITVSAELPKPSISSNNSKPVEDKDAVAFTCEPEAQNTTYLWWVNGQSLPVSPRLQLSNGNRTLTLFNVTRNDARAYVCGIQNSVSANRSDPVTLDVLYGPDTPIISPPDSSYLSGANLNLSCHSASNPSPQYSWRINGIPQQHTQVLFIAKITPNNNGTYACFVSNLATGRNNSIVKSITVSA
Method: Hybridoma supernatants were screened for CEA reactive antibody by the ROCHE® ^125I-CEA radioimmunoassay (RIA) in 0.01 and 0.10 M NH4 acetate buffer. Positive clones were recloned. The granulocyte reactivity of CEA-reactive MAb was determined by whole-blood indirect fluorescent flow cytometric analysis (Sharkey et al. Cancer Res., 1990, 50:2823-31). Two MAb with properties similar to those of NP-2 and NP-3, designated MN-2 and MN-6, were selected for additional development.

[2] = system: MDA-468 adhesion to fibronectin; experiment: Adhesion to extracellular matrix proteins assay, MDA-468; assay type: cell-based, human
Method: Adhesion to extracellular matrix proteins assay—The assay was done using the CYTOMATRIX™ screening kit from CHEMICON® (Kit #ECM205, Temecula, Calif.). The kit contains 96-well plates with strips coated with fibronectin, vitronectin, laminin, collagen-I, or collagen-IV. Subconfluent cell cultures were used for these studies. Cells (1×10^6 cells/mol) were seeded onto coated substrate and incubated at 37° C. for 1 hour in a CO2 incubator in PBS containing Ca^2+/Mg^2+ (200 μL per well). Adherent cells were fixed and stained. The plate was washed to remove unadhered cells and stained with 100 μL per well of MTS (Cell Titer Aq 96, PROMEGA®, Madison, Wis.) for 5 minutes at room temperature. Excess stain was removed with three PBS washes. Solubilization buffer [100 μL of a 50:50 mixture of 0.1 mol/L NaH2PO4 (pH 4.5) and 50% ethanol] was added to each well. Relative attachment was determined using absorbance readings (A540 nm-A570 nm).

[3] = target: T2, CEA (HeLa-CEA2) (Homo sapiens, UniProt P06731); experiment: Indirect flow cytometry, HeLa-CEA2; assay type: binding; conditions: antibodies at 1/50 dilution of 1 mg/ml stocks
T2 construct: expressed in transfected cells; host or cells: HeLa (HeLa-CEA2)
T2 sequence (P06731 35-676): T1 sequence (P06731 35-676)
Method: (§1) The reactivity of antibodies was tested by flow cytometry with a Becton-Dickinson FACSCAN®. The biotinylated second antibody was directed against mouse IgG and was detected by a streptavidin/phycoerythrin conjugate. Tests were carried out with antibodies at 1/50 dilution of 1 mg/ml stocks.
(§2) The antibodies MN-3 and MN-15 were tested for recognition of HeLa cells transfected with cDNA coding for CEA (HeLa-CEA2), NCA-90 (HeLa-KNC6/S44) and NCA-95 (HeLa-CGM6/1). As a negative control, HeLa cells transfected with the plasmid pSV2-Neo (control HeLa cells, HeLa-NeoA) were used. In addition to the antibodies MN-3 and MN-15, three control antibodies were included: […]

[4] = target: T3, NCA-90 (HeLa-KNC6/S44) (Homo sapiens, UniProt P40199); experiment: Indirect flow cytometry, HeLa-KNC6/S44; assay type: binding; conditions: antibodies at 1/50 dilution of 1 mg/ml stocks
T3 construct: expressed in transfected cells; host or cells: HeLa (HeLa-KNC6/S44)
T3 sequence (P40199 35-320): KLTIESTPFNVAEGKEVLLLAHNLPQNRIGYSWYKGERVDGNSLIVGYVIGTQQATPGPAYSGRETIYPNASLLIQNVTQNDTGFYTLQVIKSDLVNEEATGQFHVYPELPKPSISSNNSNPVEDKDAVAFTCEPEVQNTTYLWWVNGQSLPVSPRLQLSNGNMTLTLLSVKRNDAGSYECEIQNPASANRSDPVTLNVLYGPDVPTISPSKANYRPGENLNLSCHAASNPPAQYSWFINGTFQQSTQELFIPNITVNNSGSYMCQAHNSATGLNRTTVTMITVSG
Method: as §1, §2

[5] = target: T4, NCA-95 (HeLa-CGM6/1) (Homo sapiens, UniProt P31997); experiment: Indirect flow cytometry, HeLa-CGM6/1; assay type: binding; conditions: antibodies at 1/50 dilution of 1 mg/ml stocks
T4 construct: expressed in transfected cells; host or cells: HeLa (HeLa-CGM6/1)
T4 sequence (P31997 35-320): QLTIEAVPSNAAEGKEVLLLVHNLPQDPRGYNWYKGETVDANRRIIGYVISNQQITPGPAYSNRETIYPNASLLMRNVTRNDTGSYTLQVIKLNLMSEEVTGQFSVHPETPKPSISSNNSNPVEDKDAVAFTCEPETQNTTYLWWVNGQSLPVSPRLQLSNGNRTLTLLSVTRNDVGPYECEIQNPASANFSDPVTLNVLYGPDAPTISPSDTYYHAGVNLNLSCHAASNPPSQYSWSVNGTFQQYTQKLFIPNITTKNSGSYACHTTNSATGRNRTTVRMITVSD
Method: as §1, §2

binding to CEA [3]: binds to all three antigens
binding to NCA-90 [4]: binds to all three antigens
binding to NCA-95 [5]: binds to all three antigens
B1: MN-15: murine Class I anti-CEA MAb, IgG1 kappa, binds A1B1 domain of CEACAM5 and CEACAM6 (antibody, V domains shown)
VL: DIQLTQSPAIMSASPGEKVTMTCSASSRVSYIHWYQQKSGTSPKRWIYGTSTLASGVPARFSGSGSGTSYSLTISSMEAEDAATYYCQQWSYNPPTFGAGTKLELKR
VH: EVRLVESGGGLVQGPGSLRLSCAASGFALTDYYMSWVRQSPGKTLEWLGFIANKANGHTTDYSPSVKGRFTISRDNSQTILYLQMNTLRTEDSATYYCARDMGIRWNFDVWGQGTTVTVSS
ion sensitivity of CEA binding / reactivity with ion-sensitive CEA determinant [1]: binding to epitopes of the ion-sensitive CEA determinant
decrease of adhesion to fibronectin [2]: 51%
